This is an account of results in patent US20200048360A1 (TRACON PHARMACEUTICALS, published 2020).

Test [1] has as its target T1, human CD105 (R&D Systems, Catalog No. 1097-EN) (human, UniProt P17813 26-586).
T1 construct: Captured on the plate by mouse anti-human CD105 (Southern Biotechnologies 9811-01); also called endoglin
T1 sequence (looked up): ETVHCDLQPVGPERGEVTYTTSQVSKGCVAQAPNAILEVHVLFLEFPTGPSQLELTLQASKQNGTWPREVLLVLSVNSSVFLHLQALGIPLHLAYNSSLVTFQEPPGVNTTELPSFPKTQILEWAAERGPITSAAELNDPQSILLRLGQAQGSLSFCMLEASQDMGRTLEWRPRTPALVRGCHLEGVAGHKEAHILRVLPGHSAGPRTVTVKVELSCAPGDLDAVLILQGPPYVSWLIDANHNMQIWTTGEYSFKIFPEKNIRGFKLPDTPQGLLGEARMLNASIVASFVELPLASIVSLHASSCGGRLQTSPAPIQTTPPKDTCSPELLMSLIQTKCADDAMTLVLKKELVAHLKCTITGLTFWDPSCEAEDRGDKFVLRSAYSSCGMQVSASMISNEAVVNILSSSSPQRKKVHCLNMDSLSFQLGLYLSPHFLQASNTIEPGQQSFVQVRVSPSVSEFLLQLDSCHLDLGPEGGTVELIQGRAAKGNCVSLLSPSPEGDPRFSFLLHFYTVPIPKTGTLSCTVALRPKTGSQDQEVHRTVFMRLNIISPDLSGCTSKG
Nature of the test: competition ELISA on captured human CD105; competitor biotinylated chimeric anti-CD105. How it is done: Antibodies were tested in a competition ELISA for binding to CD105 against biotinylated chimeric anti-CD105. Briefly, chimeric anti-CD105 was biotinylated using a micro-biotinylation kit (Sigma, Catalog No. BTAG-1KT) following the manufacturer's instructions. […] Binding of the biotinylated chimeric antibody was detected via streptavidin-HRP (Sigma, Catalog No. 55512) and TMB substrate (Sigma, Catalog No. T0440). OD450 nm values were measured on a Dynex MRX TCII plate reader. The results of the competition analysis are illustrated in FIGS. 7 and 8. […] To allow for comparisons within and between experiments, IC50 values of humanized or humanized/deimmunized variants were normalized against the reference antibody that was included on each plate to give a value for the fold difference. IC50 values are relative to chimeric anti-CD105 and are representative of three experiments. Summary ELISA data are presented in Table 1 and include antibody expression levels […]) as assayed in saturated static cultures.
Background: An ELISA detects its analyte on a solid surface through an enzyme-linked reagent.

In test [2] the target is T1, human CD105 (R&D Systems, Catalog No. …). Kind of test: ELISA with OD450 falling against test antibody concentration (competition format of paragraph 712: biotinylated chimeric anti-CD105 on captured human CD105; the legend says only 'binding assay data').
Test [3] shares this target. Described as above. This is another data set of the same source.
For test [4] the target is unchanged. The description is as above. This is another data set of the same source.

Read-outs that look alike come from different tables or passages of the source.

B1: VK2AAVH1Q (antibody, V domains shown)
VH: EVQLVESGGGLVKPGGSLRLSCAASGFTFSDAWMDWVRQAPGKGLEWVGEIRSQASNHATYYAESVKGRFTISRDDSKNTLYLQMNSLKTEDTAVYYCTRWRRFFDSWGQGTLVTVSS
VL: DIQLTQSPSSLSASVGDRATITCRASSSVSYMHWYQQKPGKAPKPWAYATSNLASGVPSRFSGSGSGTDYTLTISSLQPEDFATYYCQQWSSNPLTFGGGTKVEIK
notes: IgG1 heavy chain, kappa light chain
Consider B1, for which the “Relative IC50 (fold of chimeric anti-endoglin antibody)” value in test [1] is 0.76 fold relative to chimeric. For the same molecule, the “IC50 (read off the curve)” value in test [2] and in test [3] was ~0.1 µg/mL each time.

B2: VK2ASVH1S (antibody, V domains shown)
VH: EVQLVESGGGLVKPGGSLRLSCAASGFTFSDAWMDWVRQAPGKGLEWVSEIRSKASNHATYYAESVKGRFTISRDDSKNTLYLQMNSLKTEDTAVYYCTRWRRFFDSWGQGTLVTVSS
VL: DIQLTQSPSSLSASVGDRATITCRASSSVSYMHWYQQKPGKAPKPWIYASSNLASGVPSRFSGSGSGTDYTLTISSLQPEDFATYYCQQWSSNPLTFGGGTKVEIK
notes: as for B1
In the case of B2, the “Relative IC50 (fold of chimeric anti-endoglin antibody)” value in test [1] is 1.31 fold relative to chimeric.

B3: VK2SAVH1Q (antibody, V domains shown)
VH: EVQLVESGGGLVKPGGSLRLSCAASGFTFSDAWMDWVRQAPGKGLEWVGEIRSQASNHATYYAESVKGRFTISRDDSKNTLYLQMNSLKTEDTAVYYCTRWRRFFDSWGQGTLVTVSS
VL: DIQLTQSPSSLSASVGDRVTISCRASSSVSYMHWYQQKPGKAPKPWAYATSNLASGVPSRFSGSGSGTDYTLTISSLQPEDFATYYCQQWSSNPLTFGGGTKVEIK
notes: as for B1
On to B3, for which, in test [1], the “Relative IC50 (fold of chimeric anti-endoglin antibody)” value was 0.87 fold relative to chimeric.

B4: VK2ASVH1R (antibody, V domains shown)
VH: EVQLVESGGGLVKPGGSLRLSCAASGFTFSDAWMDWVRQAPGKGLEWVGEIRSRASNHATYYAESVKGRFTISRDDSKNTLYLQMNSLKTEDTAVYYCTRWRRFFDSWGQGTLVTVSS
VL: DIQLTQSPSSLSASVGDRATITCRASSSVSYMHWYQQKPGKAPKPWIYASSNLASGVPSRFSGSGSGTDYTLTISSLQPEDFATYYCQQWSSNPLTFGGGTKVEIK
notes: as for B1
Turning to B4, in test [1], the “Relative IC50 (fold of chimeric anti-endoglin antibody)” value is 1.02 fold relative to chimeric.

B5: VK2SAVH1R (antibody, V domains shown)
VH: EVQLVESGGGLVKPGGSLRLSCAASGFTFSDAWMDWVRQAPGKGLEWVGEIRSRASNHATYYAESVKGRFTISRDDSKNTLYLQMNSLKTEDTAVYYCTRWRRFFDSWGQGTLVTVSS
VL: DIQLTQSPSSLSASVGDRVTISCRASSSVSYMHWYQQKPGKAPKPWAYATSNLASGVPSRFSGSGSGTDYTLTISSLQPEDFATYYCQQWSSNPLTFGGGTKVEIK
notes: as for B1
With B5, the “Relative IC50 (fold of chimeric anti-endoglin antibody)” value in test [1] was 0.77 fold relative to chimeric.

B6: VK2SAVH1A (antibody, V domains shown)
VH: EVQLVESGGGLVKPGGSLRLSCAASGFTFSDAWMDWVRQAPGKGLEWVAEIRSKASNHATYYAESVKGRFTISRDDSKNTLYLQMNSLKTEDTAVYYCTRWRRFFDSWGQGTLVTVSS
VL: DIQLTQSPSSLSASVGDRVTISCRASSSVSYMHWYQQKPGKAPKPWAYATSNLASGVPSRFSGSGSGTDYTLTISSLQPEDFATYYCQQWSSNPLTFGGGTKVEIK
notes: as for B1
With B6, the “Relative IC50 (fold of chimeric anti-endoglin antibody)” value in test [1] is 0.49 fold relative to chimeric.

B7: VK2SAVH1S (antibody, V domains shown)
VH: EVQLVESGGGLVKPGGSLRLSCAASGFTFSDAWMDWVRQAPGKGLEWVSEIRSKASNHATYYAESVKGRFTISRDDSKNTLYLQMNSLKTEDTAVYYCTRWRRFFDSWGQGTLVTVSS
VL: DIQLTQSPSSLSASVGDRVTISCRASSSVSYMHWYQQKPGKAPKPWAYATSNLASGVPSRFSGSGSGTDYTLTISSLQPEDFATYYCQQWSSNPLTFGGGTKVEIK
notes: as for B1
In the case of B7, the “Relative IC50 (fold of chimeric anti-endoglin antibody)” value in test [1] was 0.96 fold relative to chimeric.

B8: VK2SSVH1Q (antibody, V domains shown)
VH: EVQLVESGGGLVKPGGSLRLSCAASGFTFSDAWMDWVRQAPGKGLEWVGEIRSQASNHATYYAESVKGRFTISRDDSKNTLYLQMNSLKTEDTAVYYCTRWRRFFDSWGQGTLVTVSS
VL: DIQLTQSPSSLSASVGDRVTISCRASSSVSYMHWYQQKPGKAPKPWIYASSNLASGVPSRFSGSGSGTDYTLTISSLQPEDFATYYCQQWSSNPLTFGGGTKVEIK
notes: as for B1
For B8, the “Relative IC50 (fold of chimeric anti-endoglin antibody)” value in test [1] was 1.21 fold relative to chimeric.

B9: VK2SSVH1R (antibody, V domains shown)
VH: EVQLVESGGGLVKPGGSLRLSCAASGFTFSDAWMDWVRQAPGKGLEWVGEIRSRASNHATYYAESVKGRFTISRDDSKNTLYLQMNSLKTEDTAVYYCTRWRRFFDSWGQGTLVTVSS
VL: DIQLTQSPSSLSASVGDRVTISCRASSSVSYMHWYQQKPGKAPKPWIYASSNLASGVPSRFSGSGSGTDYTLTISSLQPEDFATYYCQQWSSNPLTFGGGTKVEIK
notes: as for B1
For B9, the “Relative IC50 (fold of chimeric anti-endoglin antibody)” value in test [1] was 0.62 fold relative to chimeric.

B10: VK2ASVH1A (antibody, V domains shown)
VH: EVQLVESGGGLVKPGGSLRLSCAASGFTFSDAWMDWVRQAPGKGLEWVAEIRSKASNHATYYAESVKGRFTISRDDSKNTLYLQMNSLKTEDTAVYYCTRWRRFFDSWGQGTLVTVSS
VL: DIQLTQSPSSLSASVGDRATITCRASSSVSYMHWYQQKPGKAPKPWIYASSNLASGVPSRFSGSGSGTDYTLTISSLQPEDFATYYCQQWSSNPLTFGGGTKVEIK
notes: as for B1
Turning to B10, the “Relative IC50 (fold of chimeric anti-endoglin antibody)” value in test [1] was 1.41 fold relative to chimeric.

B11: VK2SAVH1A2 (antibody, V domains shown)
VH: EVQLVESGGGLVKPGGSLRLSCAASGFTFSDAWMDWVRQAPGKGLEWVGEARSKASNHATYYAESVKGRFTISRDDSKNTLYLQMNSLKTEDTAVYYCTRWRRFFDSWGQGTLVTVSS
VL: DIQLTQSPSSLSASVGDRVTISCRASSSVSYMHWYQQKPGKAPKPWAYATSNLASGVPSRFSGSGSGTDYTLTISSLQPEDFATYYCQQWSSNPLTFGGGTKVEIK
notes: as for B1
On to B11, for which, in test [1], the “Relative IC50 (fold of chimeric anti-endoglin antibody)” value was 0.84 fold relative to chimeric.

B12: VK2ASVH1Q (antibody, V domains shown)
VH: EVQLVESGGGLVKPGGSLRLSCAASGFTFSDAWMDWVRQAPGKGLEWVGEIRSQASNHATYYAESVKGRFTISRDDSKNTLYLQMNSLKTEDTAVYYCTRWRRFFDSWGQGTLVTVSS
VL: DIQLTQSPSSLSASVGDRATITCRASSSVSYMHWYQQKPGKAPKPWIYASSNLASGVPSRFSGSGSGTDYTLTISSLQPEDFATYYCQQWSSNPLTFGGGTKVEIK
notes: as for B1
B12: the “Relative IC50 (fold of chimeric anti-endoglin antibody)” value in test [1] is 1.04 fold relative to chimeric.

B13: VK2AAVH1R (antibody, V domains shown)
VH: EVQLVESGGGLVKPGGSLRLSCAASGFTFSDAWMDWVRQAPGKGLEWVGEIRSRASNHATYYAESVKGRFTISRDDSKNTLYLQMNSLKTEDTAVYYCTRWRRFFDSWGQGTLVTVSS
VL: DIQLTQSPSSLSASVGDRATITCRASSSVSYMHWYQQKPGKAPKPWAYATSNLASGVPSRFSGSGSGTDYTLTISSLQPEDFATYYCQQWSSNPLTFGGGTKVEIK
notes: as for B1
In the case of B13, in test [1], the “Relative IC50 (fold of chimeric anti-endoglin antibody)” value is 0.61 fold relative to chimeric. The “IC50 (read off the curve)” value in test [2] and in test [4] was ~0.1 µg/mL each time.

B14: VK2SSVH1A2 (antibody, V domains shown)
VH: EVQLVESGGGLVKPGGSLRLSCAASGFTFSDAWMDWVRQAPGKGLEWVGEARSKASNHATYYAESVKGRFTISRDDSKNTLYLQMNSLKTEDTAVYYCTRWRRFFDSWGQGTLVTVSS
VL: DIQLTQSPSSLSASVGDRVTISCRASSSVSYMHWYQQKPGKAPKPWIYASSNLASGVPSRFSGSGSGTDYTLTISSLQPEDFATYYCQQWSSNPLTFGGGTKVEIK
notes: as for B1
For the molecule B14, in test [1], the “Relative IC50 (fold of chimeric anti-endoglin antibody)” value is 1.03 fold relative to chimeric.

B15: VK2SSVH1S (antibody, V domains shown)
VH: EVQLVESGGGLVKPGGSLRLSCAASGFTFSDAWMDWVRQAPGKGLEWVSEIRSKASNHATYYAESVKGRFTISRDDSKNTLYLQMNSLKTEDTAVYYCTRWRRFFDSWGQGTLVTVSS
VL: DIQLTQSPSSLSASVGDRVTISCRASSSVSYMHWYQQKPGKAPKPWIYASSNLASGVPSRFSGSGSGTDYTLTISSLQPEDFATYYCQQWSSNPLTFGGGTKVEIK
notes: as for B1
With B15, in test [1], the “Relative IC50 (fold of chimeric anti-endoglin antibody)” value is 1.21 fold relative to chimeric.
